Source: patent publication US20050282743A1, “Molecular interactions in cells” (Arbor Vita Corporation, priority 2001, published 2005)
Ends that are not written are not given here. * marks the point of attachment. Biotin = O=C1N[C@H]2[C@H](CS[C@H]2CCCCC(=O)*)N1

What was measured:
Assay type in all cases: binding
DLG-1 = molecular target: T1, DLG-1 (Homo sapiens, UniProt Q12959); assay: G assay competition of short unlabeled peptides with biotinylated 20-mers (Example 6, TABLE 6); conditions: competitor 50 uM; for % binding: 100 = no competitor
T1 construct: protein spans from amino terminal end of first PDZ domain to carboxy-terminal end of third PDZ domain in frame with GST in vector; made in house; host or cells: E. coli DH5alpha
T1 sequence (Q12959 224-546 limits assumed): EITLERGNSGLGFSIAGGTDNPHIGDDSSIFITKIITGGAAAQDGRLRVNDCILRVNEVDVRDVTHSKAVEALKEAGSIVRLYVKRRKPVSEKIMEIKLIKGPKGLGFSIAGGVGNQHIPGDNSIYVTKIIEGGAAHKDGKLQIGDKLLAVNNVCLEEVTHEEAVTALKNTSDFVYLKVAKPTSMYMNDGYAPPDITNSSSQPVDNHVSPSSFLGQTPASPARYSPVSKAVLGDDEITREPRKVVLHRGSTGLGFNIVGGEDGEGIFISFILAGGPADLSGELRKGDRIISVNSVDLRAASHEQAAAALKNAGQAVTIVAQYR
From the text: (§1) The potential for unlabeled 8-mers and 3-mers to compete for binding with biotinylated 20-mers to PDZ domains was examined. Interactions between a PDZ domain and two or more biotinylated peptides mimicking PDZ ligands identified through the ‘G Assay’ were used as model interactions. Short, 3 or 8 amino acid, unlabeled peptides were synthesized by standard techniques and used at variable concentrations with a set concentration of biotinylated 20-mer. Ability of both the 3-mer and 8-mer to inhibit longer peptide binding was observed, making PDZ:PL interactions an attractive target for design of small molecule or peptide therapeutics.
(§2) Peptides representing the C-terminal 3, 8 or 20 amino acids of a PDZ ligand were synthesized by standard FMOC chemistry and biotinylated if not used as an unlabeled competitor. Peptides three amino acids in length were acetylated to more properly mimic the peptide bond without introducing an amino-terminal charged group. Peptides were purified by reverse phase high performance liquid chromatography (HPLC) using a Vydac 218TP C18 Reversed Phase column having the dimensions of 10*25 mm, 5 um. Approximately 40 mg of peptide was dissolved in 2.0 ml of and aqueous solution of 49.9% acetonitrile and 0.1% Tri-Fluoro acetic acid (TFA). This solution was then injected into the HPLC machine through a […] syringe filter (Millipore). Buffers used to get a good separation are (A) distilled water with 0.1% TFA and (B) 0.1% TFA with Acetonitrile.
(§3) The G Assay was performed as described in EXAMPLE 3 with the exception that when a short competitor was used, 30 ul of competitor peptide (at twice the final concentration) was mixed with 30 ul biotinylated 20-mer (at twice the final concentration) and then added to the well.
(§4) PSD-95 and DLG-1 were incubated in the wells at 5 ug/ml as described in the G Assay protocol. Biotinylated 20-mer peptides used were 20 uM CLASP-2, 20 uM CD46, 10 uM CD95, and 10 uM KV1.3 (find sequences of peptides in TABLE 8). Competitors (unlabeled, short peptides) tested against each of the biotinylated peptides were 50 uM 8-mer of CD95, 100 uM 8-mer of CD46, 50 uM 8-mer of CLASP-2, and 1 mM and 500 uM acetylated 3-mer of CLASP-2. To deduce sequences, refer to TABLE 8. All absorbances were read at 450 nm after stopping TMB detection reaction at 30 min. Results were normalized in each group by dividing its A450 by the A450 of the PDZ/peptide binding in the absence of competitor and converting to percentage by multiplying by 100.

PSD-95 = molecular target: T2, PSD-95 (Homo sapiens, UniProt P78352); assay: as above; conditions: competitor 50 uM, 100 = no competitor
T2 construct: protein spans from amino terminal end of first PDZ domain to carboxy-terminal end of third PDZ domain in frame with GST in vector; made in house; host or cells: E. coli DH5alpha
T2 sequence (P78352 58-398 limits assumed): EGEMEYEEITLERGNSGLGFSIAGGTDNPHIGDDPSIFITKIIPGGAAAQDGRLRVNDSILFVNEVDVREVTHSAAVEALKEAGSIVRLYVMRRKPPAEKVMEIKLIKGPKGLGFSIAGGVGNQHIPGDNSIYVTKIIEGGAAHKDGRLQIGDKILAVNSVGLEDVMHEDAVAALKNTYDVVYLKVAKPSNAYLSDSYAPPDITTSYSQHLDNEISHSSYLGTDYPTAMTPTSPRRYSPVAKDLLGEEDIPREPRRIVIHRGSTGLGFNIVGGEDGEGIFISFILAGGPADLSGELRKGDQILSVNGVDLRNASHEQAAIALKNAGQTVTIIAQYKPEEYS
From the text: as §1, §2, §3, §4

TIP-1 (GST-TIP-1) = molecular target: T3, TIP-1 (GST-TIP-1) (Homo sapiens, UniProt O14907, I73S); assay: G assay with unlabeled 8 amino acid competitor peptide (Example 4, FIGS. 2B, 2C)
T3 construct: made in house; host or cells: E. coli DH5alpha
T3 sequence (O14907 3-123 I73S): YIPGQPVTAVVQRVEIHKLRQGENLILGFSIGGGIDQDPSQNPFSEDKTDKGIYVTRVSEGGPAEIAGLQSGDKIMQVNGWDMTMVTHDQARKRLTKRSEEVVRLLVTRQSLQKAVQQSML
Description: FIGS. 2A, 2B and 2C show binding and competition assays with the PDZ ligands of CD95 (Fas) and Tax for the PDZ domain of TIP-1.
Upon infection, the higher affinity of Tax could preferentially bind TIP-1 protein available in the cell, removing the TIP-1 bound to CD95 (Fas) and thereby rendering the cell less able to undergo apoptosis. In order to test this, competition experiments between Tax and CD95 for TIP-1 binding were performed using the ‘G Assay’, but adding additional unlabeled competitor peptide at step 9 of the ‘G Assay’ presented in EXAMPLE 3 section D.
FIGS. 2B and 2C show the results of these experiments. The graphs show the amount of binding of the biotinylated 20 amino acid peptide in the presence of increasing concentrations of unlabeled 8 amino acid competitor.

[1] = molecular target: T4, PDZ protein (GST-PDZ fusion) (Homo sapiens, UniProt Q13796); assay: G' assay (10 uM PL peptide), results of TABLE 7 and TABLE 12; conditions: PDZ hAPXL, PDZ Domain 1
T4 construct: made in house; host or cells: E. coli (DH5alpha, BL21 or JM109)
T4 sequence (Q13796 whole entry, the tested form may be a part): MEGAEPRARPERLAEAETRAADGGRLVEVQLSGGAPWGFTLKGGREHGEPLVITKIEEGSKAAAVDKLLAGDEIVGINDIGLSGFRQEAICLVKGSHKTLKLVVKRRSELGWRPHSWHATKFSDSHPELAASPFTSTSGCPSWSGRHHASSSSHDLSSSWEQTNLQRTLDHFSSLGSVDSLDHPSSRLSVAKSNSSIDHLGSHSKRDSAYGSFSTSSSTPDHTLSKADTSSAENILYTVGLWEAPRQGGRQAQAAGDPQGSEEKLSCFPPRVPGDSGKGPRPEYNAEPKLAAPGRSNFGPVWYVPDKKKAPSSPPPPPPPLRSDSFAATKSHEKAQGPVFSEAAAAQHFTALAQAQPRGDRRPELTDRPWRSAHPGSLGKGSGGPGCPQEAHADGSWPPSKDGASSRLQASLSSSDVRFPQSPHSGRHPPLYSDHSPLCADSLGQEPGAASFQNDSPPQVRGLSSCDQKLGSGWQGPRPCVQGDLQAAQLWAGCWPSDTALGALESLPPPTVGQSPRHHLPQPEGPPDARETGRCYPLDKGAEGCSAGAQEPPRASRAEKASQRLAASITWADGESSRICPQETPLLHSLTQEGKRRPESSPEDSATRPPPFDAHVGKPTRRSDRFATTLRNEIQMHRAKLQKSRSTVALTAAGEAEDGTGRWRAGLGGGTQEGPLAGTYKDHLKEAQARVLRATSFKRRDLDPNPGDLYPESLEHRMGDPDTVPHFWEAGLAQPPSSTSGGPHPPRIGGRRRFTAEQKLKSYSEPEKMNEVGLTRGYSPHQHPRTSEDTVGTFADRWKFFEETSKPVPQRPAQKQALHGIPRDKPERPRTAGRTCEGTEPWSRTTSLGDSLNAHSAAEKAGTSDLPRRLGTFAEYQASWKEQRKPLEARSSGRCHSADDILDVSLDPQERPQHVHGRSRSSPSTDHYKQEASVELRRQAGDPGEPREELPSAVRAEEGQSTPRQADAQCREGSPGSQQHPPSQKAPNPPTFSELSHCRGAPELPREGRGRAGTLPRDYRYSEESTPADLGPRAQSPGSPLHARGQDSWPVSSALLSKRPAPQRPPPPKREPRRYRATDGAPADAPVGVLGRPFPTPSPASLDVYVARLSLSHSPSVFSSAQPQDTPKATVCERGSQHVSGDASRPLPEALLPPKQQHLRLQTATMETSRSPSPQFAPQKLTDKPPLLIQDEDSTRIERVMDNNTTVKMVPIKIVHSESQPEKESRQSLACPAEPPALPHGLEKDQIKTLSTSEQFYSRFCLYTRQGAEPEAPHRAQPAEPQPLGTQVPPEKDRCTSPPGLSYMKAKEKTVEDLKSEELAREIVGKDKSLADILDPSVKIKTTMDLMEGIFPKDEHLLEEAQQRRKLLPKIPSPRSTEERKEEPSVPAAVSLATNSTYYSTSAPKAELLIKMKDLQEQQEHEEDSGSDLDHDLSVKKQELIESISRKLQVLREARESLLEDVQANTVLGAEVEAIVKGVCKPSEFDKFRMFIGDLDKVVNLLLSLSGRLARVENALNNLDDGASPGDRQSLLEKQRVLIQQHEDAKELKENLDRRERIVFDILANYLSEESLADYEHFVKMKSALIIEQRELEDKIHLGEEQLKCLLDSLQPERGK
Method in brief: (§5)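 Biotinylated PL peptides at 10 uM (vs 20 uM in G^0 assay) bound to GST-PDZ fusions; PDZ protein at 5 ug/ml unless another concentration listed. Bound peptide read as A450 nm, classified 0–5 (0 = A450 0; 5 = A450 >4 repeated).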

[2] = molecular target: T5, PDZ protein (GST-PDZ fusion) (Homo sapiens, UniProt P55196); assay: as above; conditions: PDZ AF6, PDZ Domain 1
T5 construct: made in house; host or cells: E. coli (DH5alpha, BL21 or JM109)
Method in brief: as §5

[3] = molecular target: T6, PDZ protein (GST-PDZ fusion) (Homo sapiens, UniProt P50479); assay: as above; conditions: PDZ LIM RIL, PDZ Domain 1
T6 construct: made in house; host or cells: E. coli (DH5alpha, BL21 or JM109)
T6 sequence (P50479 1-330): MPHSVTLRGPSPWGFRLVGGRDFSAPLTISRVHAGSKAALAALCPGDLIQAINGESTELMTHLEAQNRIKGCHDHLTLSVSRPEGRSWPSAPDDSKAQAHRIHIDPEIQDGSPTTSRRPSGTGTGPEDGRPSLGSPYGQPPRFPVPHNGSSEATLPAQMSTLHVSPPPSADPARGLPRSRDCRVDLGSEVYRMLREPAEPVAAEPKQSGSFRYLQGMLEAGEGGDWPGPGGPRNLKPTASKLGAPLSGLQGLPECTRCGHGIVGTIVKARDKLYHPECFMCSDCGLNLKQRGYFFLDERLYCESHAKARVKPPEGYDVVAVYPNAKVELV
Method in brief: as §5

[4] = test system: PDZ protein (GST-PDZ fusion); assay: as above
Method in brief: as §5

[5] = molecular target: T7, PDZ protein (GST-PDZ fusion) (Homo sapiens, UniProt Q9NR12); assay: as above; conditions: PDZ ENIGMA, PDZ Domain 1
T7 construct: made in house; host or cells: E. coli (DH5alpha, BL21 or JM109)
T7 sequence (Q9NR12 whole entry, the tested form may be a part): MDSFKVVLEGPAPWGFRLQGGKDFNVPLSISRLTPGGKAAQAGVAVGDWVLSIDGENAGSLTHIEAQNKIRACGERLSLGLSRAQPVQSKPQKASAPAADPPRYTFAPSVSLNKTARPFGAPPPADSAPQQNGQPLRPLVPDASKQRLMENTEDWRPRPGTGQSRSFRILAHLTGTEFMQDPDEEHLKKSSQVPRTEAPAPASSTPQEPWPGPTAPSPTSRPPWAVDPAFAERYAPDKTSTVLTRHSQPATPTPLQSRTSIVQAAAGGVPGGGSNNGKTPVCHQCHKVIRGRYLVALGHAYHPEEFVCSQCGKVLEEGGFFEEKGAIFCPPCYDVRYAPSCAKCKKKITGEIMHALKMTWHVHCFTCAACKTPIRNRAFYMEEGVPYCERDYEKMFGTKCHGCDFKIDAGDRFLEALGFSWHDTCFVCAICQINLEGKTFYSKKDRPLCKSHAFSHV
Method in brief: as §5

[6] = molecular target: T8, PDZ protein (GST-PDZ fusion) (Homo sapiens, UniProt O75970); assay: as above; conditions: PDZ MUPP-1, PDZ Domain 10
T8 construct: made in house; host or cells: E. coli (DH5alpha, BL21 or JM109)
Method in brief: as §5

[7] = molecular target: T9, PDZ protein (GST-PDZ fusion) (Homo sapiens, UniProt Q12923); assay: as above; conditions: PDZ PTPL-1, PDZ Domain 4
T9 construct: made in house; host or cells: E. coli (DH5alpha, BL21 or JM109)
Method in brief: as §5

[8] = molecular target: T10, PDZ protein (GST-PDZ fusion) (Homo sapiens, UniProt Q6P0Q8); assay: as above
T10 construct: made in house; host or cells: E. coli (DH5alpha, BL21 or JM109)
T10 sequence (Q6P0Q8 whole entry, the tested form may be a part): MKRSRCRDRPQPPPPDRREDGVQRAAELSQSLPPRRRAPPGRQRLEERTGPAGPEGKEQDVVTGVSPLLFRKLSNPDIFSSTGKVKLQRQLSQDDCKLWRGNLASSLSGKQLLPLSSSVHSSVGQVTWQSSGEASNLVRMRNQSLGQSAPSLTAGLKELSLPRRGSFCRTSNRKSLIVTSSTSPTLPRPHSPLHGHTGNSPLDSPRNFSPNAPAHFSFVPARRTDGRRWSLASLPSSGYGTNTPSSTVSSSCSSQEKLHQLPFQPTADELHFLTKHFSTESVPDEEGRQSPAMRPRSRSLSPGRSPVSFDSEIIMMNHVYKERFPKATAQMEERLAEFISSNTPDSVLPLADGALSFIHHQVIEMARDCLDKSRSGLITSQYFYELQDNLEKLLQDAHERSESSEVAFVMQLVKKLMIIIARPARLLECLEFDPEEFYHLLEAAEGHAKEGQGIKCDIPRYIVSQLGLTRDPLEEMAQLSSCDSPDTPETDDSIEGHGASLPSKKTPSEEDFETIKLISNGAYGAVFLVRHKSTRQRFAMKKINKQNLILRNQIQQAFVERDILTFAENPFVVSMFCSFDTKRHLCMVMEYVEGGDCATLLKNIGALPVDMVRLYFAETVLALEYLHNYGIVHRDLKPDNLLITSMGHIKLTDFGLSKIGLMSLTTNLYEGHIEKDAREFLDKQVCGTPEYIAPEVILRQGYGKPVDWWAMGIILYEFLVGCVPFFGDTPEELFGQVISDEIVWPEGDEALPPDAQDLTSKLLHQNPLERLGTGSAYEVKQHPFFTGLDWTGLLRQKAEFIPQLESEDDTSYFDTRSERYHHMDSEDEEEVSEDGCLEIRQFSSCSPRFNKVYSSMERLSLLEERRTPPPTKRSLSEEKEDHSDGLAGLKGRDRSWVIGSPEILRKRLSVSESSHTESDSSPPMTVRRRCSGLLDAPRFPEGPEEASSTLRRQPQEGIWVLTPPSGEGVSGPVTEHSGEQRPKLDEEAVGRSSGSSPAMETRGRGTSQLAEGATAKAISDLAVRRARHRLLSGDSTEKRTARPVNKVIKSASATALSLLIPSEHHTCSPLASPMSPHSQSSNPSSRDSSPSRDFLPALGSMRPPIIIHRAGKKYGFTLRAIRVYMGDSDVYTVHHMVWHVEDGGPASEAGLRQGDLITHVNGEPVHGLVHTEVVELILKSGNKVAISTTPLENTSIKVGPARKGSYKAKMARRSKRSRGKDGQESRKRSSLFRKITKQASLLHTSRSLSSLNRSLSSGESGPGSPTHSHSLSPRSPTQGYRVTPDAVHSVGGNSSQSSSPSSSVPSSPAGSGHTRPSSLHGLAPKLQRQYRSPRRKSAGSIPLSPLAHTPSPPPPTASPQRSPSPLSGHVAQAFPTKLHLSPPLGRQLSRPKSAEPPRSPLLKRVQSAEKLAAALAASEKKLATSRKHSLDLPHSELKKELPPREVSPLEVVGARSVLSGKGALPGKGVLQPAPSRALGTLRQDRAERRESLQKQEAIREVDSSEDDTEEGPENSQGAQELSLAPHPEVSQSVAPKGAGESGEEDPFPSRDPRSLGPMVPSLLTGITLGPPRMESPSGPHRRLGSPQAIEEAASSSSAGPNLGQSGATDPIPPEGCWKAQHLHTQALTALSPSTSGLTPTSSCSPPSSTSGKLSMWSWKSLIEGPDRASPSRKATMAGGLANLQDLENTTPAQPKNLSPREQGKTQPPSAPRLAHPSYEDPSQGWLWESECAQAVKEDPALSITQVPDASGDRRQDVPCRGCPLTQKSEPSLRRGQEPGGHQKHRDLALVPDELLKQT
Method in brief: as §5

[9] = molecular target: T11, PDZ protein (GST-PDZ fusion) (Homo sapiens, UniProt Q02410); assay: as above
T11 construct: made in house; host or cells: E. coli (DH5alpha, BL21 or JM109)
T11 sequence (Q02410 1-837): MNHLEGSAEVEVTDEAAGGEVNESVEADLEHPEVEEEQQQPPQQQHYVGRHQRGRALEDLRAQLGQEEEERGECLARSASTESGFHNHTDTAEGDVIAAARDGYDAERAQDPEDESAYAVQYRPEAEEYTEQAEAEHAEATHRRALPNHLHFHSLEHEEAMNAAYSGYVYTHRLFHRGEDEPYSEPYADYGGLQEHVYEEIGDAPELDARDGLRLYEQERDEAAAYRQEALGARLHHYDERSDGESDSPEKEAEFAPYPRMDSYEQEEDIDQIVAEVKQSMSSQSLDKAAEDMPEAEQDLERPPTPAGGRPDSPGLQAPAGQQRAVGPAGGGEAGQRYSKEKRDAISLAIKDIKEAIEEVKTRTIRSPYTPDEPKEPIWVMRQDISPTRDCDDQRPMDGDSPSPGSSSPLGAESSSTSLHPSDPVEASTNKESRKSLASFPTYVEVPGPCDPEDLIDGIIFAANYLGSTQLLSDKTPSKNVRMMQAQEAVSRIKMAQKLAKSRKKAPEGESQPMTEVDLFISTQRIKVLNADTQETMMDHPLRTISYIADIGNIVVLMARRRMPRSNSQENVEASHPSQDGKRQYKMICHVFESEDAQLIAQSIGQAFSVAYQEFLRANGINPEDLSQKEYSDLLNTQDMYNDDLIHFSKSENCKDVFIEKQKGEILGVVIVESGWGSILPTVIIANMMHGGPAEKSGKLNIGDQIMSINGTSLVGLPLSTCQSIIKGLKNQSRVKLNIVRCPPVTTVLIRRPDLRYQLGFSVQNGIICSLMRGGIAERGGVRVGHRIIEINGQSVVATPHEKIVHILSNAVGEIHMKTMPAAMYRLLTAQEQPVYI
Method in brief: as §5

[10] = molecular target: T12, PDZ protein (GST-PDZ fusion) (Homo sapiens, UniProt Q99767); assay: as above; conditions: PDZ X11-beta, PDZ Domain 2
T12 construct: made in house; host or cells: E. coli (DH5alpha, BL21 or JM109)
T12 sequence (Q99767 1-749): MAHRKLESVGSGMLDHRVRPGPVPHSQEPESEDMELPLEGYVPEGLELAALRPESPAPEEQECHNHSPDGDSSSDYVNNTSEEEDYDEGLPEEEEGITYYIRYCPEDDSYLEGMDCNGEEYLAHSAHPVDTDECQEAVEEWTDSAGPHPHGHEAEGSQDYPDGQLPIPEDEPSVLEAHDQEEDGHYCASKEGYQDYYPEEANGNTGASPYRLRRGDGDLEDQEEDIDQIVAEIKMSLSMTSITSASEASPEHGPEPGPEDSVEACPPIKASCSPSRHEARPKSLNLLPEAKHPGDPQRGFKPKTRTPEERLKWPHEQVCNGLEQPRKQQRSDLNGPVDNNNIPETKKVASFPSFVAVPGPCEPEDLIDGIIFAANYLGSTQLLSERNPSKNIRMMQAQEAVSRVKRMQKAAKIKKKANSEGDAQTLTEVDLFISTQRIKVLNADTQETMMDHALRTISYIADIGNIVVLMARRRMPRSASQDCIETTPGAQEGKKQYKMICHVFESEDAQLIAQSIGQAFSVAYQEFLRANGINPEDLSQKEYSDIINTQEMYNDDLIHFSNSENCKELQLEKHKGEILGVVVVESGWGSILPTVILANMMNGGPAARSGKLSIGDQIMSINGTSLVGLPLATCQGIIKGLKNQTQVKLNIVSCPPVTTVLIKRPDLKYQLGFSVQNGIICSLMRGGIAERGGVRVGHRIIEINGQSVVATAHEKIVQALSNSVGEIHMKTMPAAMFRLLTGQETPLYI
Method in brief: as §5

[11] = biotinylated 20-mer CLASP-2 20 uM
[12] = biotinylated 20-mer KV1.3 10 uM

RNEIQSLV [CD95 8-mer, unlabeled peptide of the C-terminal 8 amino acids of CD95]
% binding (DLG-1; biotinylated 20-mer CD46 20 uM): 110% | % binding (DLG-1; biotinylated 20-mer CD95 10 uM): 70% | % binding (DLG-1; [11]): 73% | % binding (DLG-1; [12]): 84% | reduction of binding of CLASP-2 and CD95 labeled ligand (DLG-1; 2.5 to 5-fold excess): approximately 30% | % binding (PSD-95; biotinylated 20-mer CD46 20 uM): 100% | % binding (PSD-95; biotinylated 20-mer CD95 10 uM): 75% | % binding (PSD-95; [11]): 92% | % binding (PSD-95; [12]): 87% | concentration of unlabeled competitor it takes to compete for binding of Tax to TIP-1 (FIG. 2C) (TIP-1 (GST-TIP-1); unlabeled 8 amino acid CD95 competitor, 1 μM labeled Tax 20-mer): 100 to 500 µM | excess needed to interfere with the binding of Tax to TIP-1 (TIP-1 (GST-TIP-1); unlabeled CD95 8-mer versus labeled Tax): ~500 fold

YSATYSELEDPGEMSPPIDL (Biotin-YSATYSELEDPGEMSPPIDL) [FceRlb]
Classification [1]: 1 (A450 nm 0-1) | Classification [2]: 2 (A450 nm 1-2) | Classification [3]: 1 (A450 nm 0-1) | Classification ([4]; PDZ LIM Protein, PDZ Domain 1): 2 (A450 nm 1-2) | Classification [5]: 2 (A450 nm 1-2)

EVIGYIEKPGVETLEDSVF (Biotin-EVIGYIEKPGVETLEDSVF) [CDW125 (modified)]
Classification [1]: 1 (A450 nm 0-1) | Classification [5]: 1 (A450 nm 0-1)

NGGFAVDKSDTISFTQTSQF [glutamate transporter 3]
Classification [1]: 1 (A450 nm 0-1) | Classification [6]: 1 (A450 nm 0-1) | Classification [7]: 1 (A450 nm 0-1) | Classification ([8]; PDZ KIAA807): 1 (A450 nm 0-1) | Classification ([8]; PDZ KIAA0807(S), PDZ Domain 1): 1 (A450 nm 0-1) | Classification ([9]; PDZ Mint 1, PDZ Domain 1, 2): 1 (A450 nm 0-1) | Classification ([9]; PDZ Mint 1, PDZ Domain 2): 1 (A450 nm 0-1) | Classification [10]: 1 (A450 nm 0-1) | Classification ([4]; PDZ BAI-1, PDZ Domain 4): 1 (A450 nm 0-1)
